From patent EP4696714A1, “PREPARATION METHOD FOR NANOBODY TARGETING TISSUE FACTOR AND CONJUGATE AND USE THEREOF” (Fudan University, priority 2023, dated 2024)

B1: F1-A01-FC1 (chimeric nanobody: F1-A01 VHH fused with human Fc mutant fragment FC1) (Fc fusion)
chain: EVQLVESGGGLVQAGGSLRLSCAASGRAFSAYAMGWFRQAPGKEREFVAAISWSGGSTYYADSVRGRFTISRDNTKNTVYLQMNSLKPEDTAVYYCNADSLLSLLDGSRGGPGTDSGSWGQGTQVTVSSEPKSSDKTHTCPPCPAPEFEGGPSVFLFPPKPKDTLMISRTPEVTCVVVDVSHEDPEVKFNWYVDGVEVHNAKTKPREEQYNSTYRVVSVLTVLHQDWLNGKEYKCKVSNKALPASIEKTISKAKGQPREPQVYTLPPSRDELTKNQVSLTCLVKGFYPSDIAVEWESNGQPENNYKTTPPVLDSDGSFFLYSKLTVDKSRWQQGNVFSCSVMHEALHNHYTQKSLSLSPGK
notes: it is built from the VHH and FC1 as in 4-A02-FC1
B2: original nanobody 4A02 (parental antibody 4A02, as comparator in Examples 11 and 12) (Fc fusion)
VHH: QVQLVESGGGLVQPGGSLSLSCTASETISSTYIMGWHRRSPGKERELVAVISGDGVTHYADFVKGRFVISRDNAKNAVYLKMNFLTPEDTAVYYCYAAGRWNHWGQGTQVTVSS
notes: not shown: Fc segment of the comparator
B3: 4-A02-ABD-MMAE: NDC of 4-A02-ABD (monomer) coupled to mc-vc-MMAE, DAR1 (conjugate)
chain: QVQLVESGGGLVQPGGSLSLSCTASETISSTYIMGWHRRSPGKERELVAVISGDGVTHYADFVKGRFVISRDNAKNAVYLKMNFLTPEDTAVYYCYAAGRWNHWGQGTQVTVSSGGGGSGGGGSGGGGSQHDEAVDANSLAEAKVLANRELDKYGVSDYYKNLINNAKTVEGVKALIDEILAALPAAACAAAHHHHHH
B4: 4-A02-DXd (conjugate)
chain: QVQLVESGGGLVQPGGSLSLSCTASETISSTYIMGWHRRSPGKERELVAVISGDGVTHYADFVKGRFVISRDNAKNAVYLKMNFLTPEDTAVYYCYAAGRWNHWGQGTQVTVSSEPKSSDKTHTCPPCPAPEFEGGPSVFLFPPKPKDTLMISRTPEVTCVVVDVSHEDPEVKFNWYVDGVEVHNAKTKPREEQYNSTYRVVSVLTVLHQDWLNGKEYKCKVSNKALPASIEKTISKAKGQPREPQVYTLPPSRDELTKNQVSLTCLVKGFYPSDIAVEWESNGQPENNYKTTPPVLDSDGSFFLYSKLTVDKSRWQQGNVFSCSVMHEALHNHYTQKSLSLSPGK
B5: 5-C12-FC1 (chimeric nanobody: 5-C12 VHH fused with human Fc mutant fragment FC1) (Fc fusion)
chain: QVQLVESGGGLAQAGGSLRLSCAGSGRTFSTDAMGWFRQAPGKEREFVAAINWSGGSTYYADSVKGRFTISRDNAKNTVYLQMNSVKPEDTAVYYCVADSLLALLDGSRGGPGTDSDSWGQGTQVTVSSEPKSSDKTHTCPPCPAPEFEGGPSVFLFPPKPKDTLMISRTPEVTCVVVDVSHEDPEVKFNWYVDGVEVHNAKTKPREEQYNSTYRVVSVLTVLHQDWLNGKEYKCKVSNKALPASIEKTISKAKGQPREPQVYTLPPSRDELTKNQVSLTCLVKGFYPSDIAVEWESNGQPENNYKTTPPVLDSDGSFFLYSKLTVDKSRWQQGNVFSCSVMHEALHNHYTQKSLSLSPGK
notes: built from the VHH and FC1
B6: 4-C05-FC1 (chimeric nanobody: 4-C05 VHH fused with human Fc mutant fragment FC1) (Fc fusion)
chain: QVQLVESGGGLVQPGGSLRLSCAASGFTLDTYAIGWIRQAPGKEREGVSCISSTDGSTYYAASVKGRFTINRDNAKNTVYLQMNSLKPEDTAVYYCAAGPGTDCPLRFDYWGQGIQVTVSSEPKSSDKTHTCPPCPAPEFEGGPSVFLFPPKPKDTLMISRTPEVTCVVVDVSHEDPEVKFNWYVDGVEVHNAKTKPREEQYNSTYRVVSVLTVLHQDWLNGKEYKCKVSNKALPASIEKTISKAKGQPREPQVYTLPPSRDELTKNQVSLTCLVKGFYPSDIAVEWESNGQPENNYKTTPPVLDSDGSFFLYSKLTVDKSRWQQGNVFSCSVMHEALHNHYTQKSLSLSPGK
notes: built from the VHH and FC1
B7: 5-H3-FC1 (chimeric nanobody: 5-H3 VHH fused with human Fc mutant fragment FC1) (Fc fusion)
chain: QVQLVESGGGLVQPGGSLRLSCVASGFTLANYAIGFYRRAPGKGREGVSCISRSDGDTYHVDSVKGRFTVSRDNAKNTAYLQMNSLVPEDTGVYYCRATEWCGVQDPHGYWGQGTQVTVSSEPKSSDKTHTCPPCPAPEFEGGPSVFLFPPKPKDTLMISRTPEVTCVVVDVSHEDPEVKFNWYVDGVEVHNAKTKPREEQYNSTYRVVSVLTVLHQDWLNGKEYKCKVSNKALPASIEKTISKAKGQPREPQVYTLPPSRDELTKNQVSLTCLVKGFYPSDIAVEWESNGQPENNYKTTPPVLDSDGSFFLYSKLTVDKSRWQQGNVFSCSVMHEALHNHYTQKSLSLSPGK
notes: built from the VHH and FC1

Tests used:
[1] = system: 18 human tumor cell lines; details: average against 18 human tumor cell lines; cited from earlier work
[2] = compared with MMDX and doxorubicin; cited from earlier work
[3] = molecular target: T1, TF on the surface of tumor cells (MDA-MB-231, HPAF-II, HCC1806, BxPC3, HCC44, PC9, H1975 and other … (UniProt P13726 33-295, limits assumed)); assay: flow cytometry on MDA-MB-231 cells, PE-labeled secondary antibody
T1 construct: whole, on cells; the cell lines are human tumour lines; also called TF on cell surface; tumor cell surface TF

[4] = molecular target: T2, human TF extracellular domain protein (TF-ECD, Met 1-Glu 251) (human, UniProt P13726 33-251); assay: ForteBio OCTET R2; His-tagged antigen on NTA sensor, nanobody-Fc 25-1.56 nM in solution, 25°C
T2 construct: range 1-251; also called human TF-ECD; not shown: His tag (protein captured on an NTA sensor as 'FDYKSD-01-His')

[5] = molecular target: T2, human TF extracellular domain protein …; assay: ForteBio OCTET R2 (called SPR), method of Example 2
[6] = system: KRAS^G12D pancreatic cancer HPAF-II xenograft tumor; assay: Pancreatic cancer HPAF-II xenograft model; type: in vivo, Balb/c nude mice; details: 3 mg/kg, single-dose, tail vein
Description: Pancreatic ductal adenocarcinoma (PDAC) HPAF-II cells in logarithmic growth phase were subcutaneously inoculated into the bank of 5-week-old female Balb/c nude mice (purchased from Shanghai Sippr-BK Laboratory Animal Co., Ltd.) at a density of 2.5×10^6 cells per 200 µL serum-free medium. When tumor volume reached 100-200 mm^3, animals were randomly grouped, 8 tumors per group. The preferred TF-NDCs such as 4-A02-MMAE, 4-A02-ABD-MMAE were administered via tail vein injection at 3 mg/kg or 1 mg/kg on the day of grouping, with hIgG1-MMAE as the negative control. Only one dose was administered throughout the experiment. Tumor volume and mouse body weight were measured twice a week to plot growth curves. Tumor volume (V) was calculated using the formula: V = 1/2 × a × b^2, where a and b represent tumor length and width, respectively.

[7] = system: HCC1954 mammary pad xenograft; assay: HCC1954 mammary pad xenograft experiment; type: in vivo; details: once a week, twice in total

Row | Molecule | EC50 [3] [µg/mL] | Kd [4] [nM] | further results
1 | CN[C@H](C(=O)N[C@H](C(=O)N(C)[C@H](/C=C(\C)C(=O)O)C(C)C)C(C)(C)C)C(C)(C)c1ccccc1 [Taltobulin] | – | – | IC50 [1]: 2.5 nM
2 | COc1cccc2c1C(=O)c1c(O)c3c(c(O)c1C2=O)C[C@@](O)(C(=O)CO)C[C@@H]3O[C@H]1C[C@H]2[C@H](O[C@@H]3[C@@H](OC)OCCN32)[C@H](C)O1 [PNU-159682] | – | – | increase in activity [2]: 3000 folds
3 | B1 | 0.75 | 4.37 | –
4 | B2 | – | – | Kd [5]: 0.29 nM
5 | B3 | – | – | anti-tumor effect (tumor volume) [6]: complete tumor regression; inhibition of tumor growth ([7]; 3 mg/kg intravenous): significant inhibition of tumor growth and caused tumor regression
6 | B4 | – | – | inhibition of tumor growth ([7]; 10 mg/kg intravenous): significant inhibition of tumor growth and caused tumor regression
7 | B5 | 0.47 | 0.001 | –
8 | B6 | 0.7 | 0.2 | –
9 | B7 | 0.25 | 0.45 | –
